Experimental data reported in article PMC4451881, “Functional display of heterotetrameric human protein kinase CK2 on Escherichia coli: a novel tool for drug discovery” (Microbial Cell Factories, 2015).

Target: T1, CK2α-AT, autotransporter fusion protein with the human protein kinase CK2 α-subunit as passenger domain (human, UniProt P68400 2-391)
T1 sequence (looked up): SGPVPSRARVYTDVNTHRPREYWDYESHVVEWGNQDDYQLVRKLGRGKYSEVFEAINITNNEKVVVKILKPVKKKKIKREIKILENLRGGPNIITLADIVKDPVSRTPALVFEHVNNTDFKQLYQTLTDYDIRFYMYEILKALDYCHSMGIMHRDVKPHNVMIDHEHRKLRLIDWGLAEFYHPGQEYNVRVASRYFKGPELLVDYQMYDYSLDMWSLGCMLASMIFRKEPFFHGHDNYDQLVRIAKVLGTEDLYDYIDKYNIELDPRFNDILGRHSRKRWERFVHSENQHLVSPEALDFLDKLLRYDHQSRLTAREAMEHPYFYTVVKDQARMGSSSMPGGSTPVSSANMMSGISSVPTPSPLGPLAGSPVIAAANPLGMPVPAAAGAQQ
Assay: cell-based or functional assay

B1: CK2β-AT, autotransporter fusion protein with the human protein kinase CK2 β-subunit as passenger domain (natural protein)
chain: not shown
  radiometric whole-cell kinase activity normalised to the expression level of CK2α-AT, cells co-displaying both subunits against cells displaying CK2α alone: > 5 fold
